Reference: article PMC12069617

Key:
Assay in all cases: SEC-MALS
[1] = molecular target: PR-B (progesterone receptor isoform B);SRC3 (steroid receptor coactivator 3) (human?;human?, UniProt P06401;Q9Y6Q9 1-933;1-1424, |)
[2] = molecular target: PR-B (progesterone receptor isoform B);SRC3 (steroid receptor coactivator 3);p300 (human?;human?;human?, UniProt P06401;Q9Y6Q9;Q09472 1-933;1-1424;1-2414, ||)
[3] = molecular target: PR-A (progesterone receptor isoform A);SRC3 (steroid receptor coactivator 3) (human?;human?, UniProt P06401;Q9Y6Q9 165-933;1-1424, |)
[4] = molecular target: PR-A (progesterone receptor isoform A);SRC3 (steroid receptor coactivator 3);p300 (human?;human?;human?, UniProt P06401;Q9Y6Q9;Q09472 165-933;1-1424;1-2414, ||)
[5] = molecular target: PR-A (progesterone receptor isoform A) (UniProt P06401 165-933)
[6] = molecular target: PR-B (progesterone receptor isoform B) (UniProt P06401 1-933)

Measured: binding result

Chain of PR-B (progesterone receptor isoform B) (P06401 whole entry, canonical isoform): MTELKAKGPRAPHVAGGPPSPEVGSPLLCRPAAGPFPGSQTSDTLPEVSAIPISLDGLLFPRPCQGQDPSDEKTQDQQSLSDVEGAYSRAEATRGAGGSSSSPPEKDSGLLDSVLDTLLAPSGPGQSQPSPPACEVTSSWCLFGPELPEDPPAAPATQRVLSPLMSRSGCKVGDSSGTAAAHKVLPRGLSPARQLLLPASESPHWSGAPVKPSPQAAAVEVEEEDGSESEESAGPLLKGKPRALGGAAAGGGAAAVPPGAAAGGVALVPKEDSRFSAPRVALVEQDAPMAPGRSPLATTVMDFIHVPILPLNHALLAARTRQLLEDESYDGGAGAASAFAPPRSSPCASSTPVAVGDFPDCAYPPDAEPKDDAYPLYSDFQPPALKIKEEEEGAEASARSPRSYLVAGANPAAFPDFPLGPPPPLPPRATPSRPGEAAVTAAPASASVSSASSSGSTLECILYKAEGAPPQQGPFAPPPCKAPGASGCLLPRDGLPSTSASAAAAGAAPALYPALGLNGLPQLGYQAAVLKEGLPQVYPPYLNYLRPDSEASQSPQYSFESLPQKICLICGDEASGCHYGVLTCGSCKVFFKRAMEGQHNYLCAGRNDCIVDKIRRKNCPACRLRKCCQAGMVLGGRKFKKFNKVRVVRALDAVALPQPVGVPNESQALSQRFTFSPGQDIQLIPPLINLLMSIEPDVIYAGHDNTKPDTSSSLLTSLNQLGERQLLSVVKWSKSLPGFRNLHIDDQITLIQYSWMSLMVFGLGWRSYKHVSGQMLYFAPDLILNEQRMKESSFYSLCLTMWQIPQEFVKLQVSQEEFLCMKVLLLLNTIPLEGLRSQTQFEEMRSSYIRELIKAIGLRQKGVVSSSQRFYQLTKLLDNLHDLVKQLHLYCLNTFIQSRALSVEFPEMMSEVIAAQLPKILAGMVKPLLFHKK
Chain of PR-B (progesterone receptor isoform B);SRC3 (steroid receptor coactivator 3) (P06401 whole entry, chain 1 of 2, canonical isoform): as the sequence (P06401 whole entry, canonical isoform) above
Chain of PR-B (progesterone receptor isoform B);SRC3 (steroid receptor coactivator 3) (Q9Y6Q9 whole entry, chain 2 of 2, canonical isoform): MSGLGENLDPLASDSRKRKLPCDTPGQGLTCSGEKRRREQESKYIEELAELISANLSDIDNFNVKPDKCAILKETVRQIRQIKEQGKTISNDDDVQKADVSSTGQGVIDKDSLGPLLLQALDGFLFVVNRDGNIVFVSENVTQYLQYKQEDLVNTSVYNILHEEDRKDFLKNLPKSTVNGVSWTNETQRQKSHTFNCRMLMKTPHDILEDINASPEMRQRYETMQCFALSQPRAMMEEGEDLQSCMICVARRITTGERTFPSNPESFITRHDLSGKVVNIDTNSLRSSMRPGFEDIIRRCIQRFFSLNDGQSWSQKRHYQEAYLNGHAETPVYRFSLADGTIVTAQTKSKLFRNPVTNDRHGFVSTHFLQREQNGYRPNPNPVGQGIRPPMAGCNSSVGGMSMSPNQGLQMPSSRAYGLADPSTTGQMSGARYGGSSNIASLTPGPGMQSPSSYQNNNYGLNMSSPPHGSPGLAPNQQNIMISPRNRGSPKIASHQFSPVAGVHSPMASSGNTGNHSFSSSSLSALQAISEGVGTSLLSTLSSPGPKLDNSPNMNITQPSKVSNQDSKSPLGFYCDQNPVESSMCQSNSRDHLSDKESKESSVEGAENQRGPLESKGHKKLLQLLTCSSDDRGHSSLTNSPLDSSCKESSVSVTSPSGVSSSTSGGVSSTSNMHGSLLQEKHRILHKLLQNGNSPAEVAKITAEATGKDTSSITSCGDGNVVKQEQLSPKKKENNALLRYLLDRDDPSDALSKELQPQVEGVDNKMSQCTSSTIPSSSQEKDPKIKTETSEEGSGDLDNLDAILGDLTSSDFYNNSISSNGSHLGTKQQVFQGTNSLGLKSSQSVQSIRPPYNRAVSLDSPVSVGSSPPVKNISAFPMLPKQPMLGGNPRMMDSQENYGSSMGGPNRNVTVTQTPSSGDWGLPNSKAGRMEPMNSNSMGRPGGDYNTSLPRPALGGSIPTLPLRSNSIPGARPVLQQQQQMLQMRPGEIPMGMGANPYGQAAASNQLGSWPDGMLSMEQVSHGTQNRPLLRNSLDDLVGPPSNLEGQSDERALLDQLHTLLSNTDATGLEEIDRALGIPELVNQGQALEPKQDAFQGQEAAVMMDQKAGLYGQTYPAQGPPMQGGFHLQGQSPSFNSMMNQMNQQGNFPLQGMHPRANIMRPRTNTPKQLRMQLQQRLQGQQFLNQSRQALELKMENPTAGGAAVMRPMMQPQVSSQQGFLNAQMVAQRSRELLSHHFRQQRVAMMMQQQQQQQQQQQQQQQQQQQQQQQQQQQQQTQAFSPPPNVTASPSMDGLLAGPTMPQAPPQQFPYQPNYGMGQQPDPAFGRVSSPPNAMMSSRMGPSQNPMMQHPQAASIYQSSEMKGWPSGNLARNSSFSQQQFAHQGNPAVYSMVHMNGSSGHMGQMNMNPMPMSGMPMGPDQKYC
Chain of PR-B (progesterone receptor isoform B);SRC3 (steroid receptor coactivator 3);p300 (P06401 whole entry, chain 1 of 3, canonical isoform): as the sequence (P06401 whole entry, canonical isoform) above
Chain of PR-B (progesterone receptor isoform B);SRC3 (steroid receptor coactivator 3);p300 (Q9Y6Q9 whole entry, chain 2 of 3, canonical isoform): as the sequence (Q9Y6Q9 whole entry, chain 2 of 2, canonical isoform) above
Chain of PR-B (progesterone receptor isoform B);SRC3 (steroid receptor coactivator 3);p300 (Q09472 whole entry, chain 3 of 3, canonical isoform): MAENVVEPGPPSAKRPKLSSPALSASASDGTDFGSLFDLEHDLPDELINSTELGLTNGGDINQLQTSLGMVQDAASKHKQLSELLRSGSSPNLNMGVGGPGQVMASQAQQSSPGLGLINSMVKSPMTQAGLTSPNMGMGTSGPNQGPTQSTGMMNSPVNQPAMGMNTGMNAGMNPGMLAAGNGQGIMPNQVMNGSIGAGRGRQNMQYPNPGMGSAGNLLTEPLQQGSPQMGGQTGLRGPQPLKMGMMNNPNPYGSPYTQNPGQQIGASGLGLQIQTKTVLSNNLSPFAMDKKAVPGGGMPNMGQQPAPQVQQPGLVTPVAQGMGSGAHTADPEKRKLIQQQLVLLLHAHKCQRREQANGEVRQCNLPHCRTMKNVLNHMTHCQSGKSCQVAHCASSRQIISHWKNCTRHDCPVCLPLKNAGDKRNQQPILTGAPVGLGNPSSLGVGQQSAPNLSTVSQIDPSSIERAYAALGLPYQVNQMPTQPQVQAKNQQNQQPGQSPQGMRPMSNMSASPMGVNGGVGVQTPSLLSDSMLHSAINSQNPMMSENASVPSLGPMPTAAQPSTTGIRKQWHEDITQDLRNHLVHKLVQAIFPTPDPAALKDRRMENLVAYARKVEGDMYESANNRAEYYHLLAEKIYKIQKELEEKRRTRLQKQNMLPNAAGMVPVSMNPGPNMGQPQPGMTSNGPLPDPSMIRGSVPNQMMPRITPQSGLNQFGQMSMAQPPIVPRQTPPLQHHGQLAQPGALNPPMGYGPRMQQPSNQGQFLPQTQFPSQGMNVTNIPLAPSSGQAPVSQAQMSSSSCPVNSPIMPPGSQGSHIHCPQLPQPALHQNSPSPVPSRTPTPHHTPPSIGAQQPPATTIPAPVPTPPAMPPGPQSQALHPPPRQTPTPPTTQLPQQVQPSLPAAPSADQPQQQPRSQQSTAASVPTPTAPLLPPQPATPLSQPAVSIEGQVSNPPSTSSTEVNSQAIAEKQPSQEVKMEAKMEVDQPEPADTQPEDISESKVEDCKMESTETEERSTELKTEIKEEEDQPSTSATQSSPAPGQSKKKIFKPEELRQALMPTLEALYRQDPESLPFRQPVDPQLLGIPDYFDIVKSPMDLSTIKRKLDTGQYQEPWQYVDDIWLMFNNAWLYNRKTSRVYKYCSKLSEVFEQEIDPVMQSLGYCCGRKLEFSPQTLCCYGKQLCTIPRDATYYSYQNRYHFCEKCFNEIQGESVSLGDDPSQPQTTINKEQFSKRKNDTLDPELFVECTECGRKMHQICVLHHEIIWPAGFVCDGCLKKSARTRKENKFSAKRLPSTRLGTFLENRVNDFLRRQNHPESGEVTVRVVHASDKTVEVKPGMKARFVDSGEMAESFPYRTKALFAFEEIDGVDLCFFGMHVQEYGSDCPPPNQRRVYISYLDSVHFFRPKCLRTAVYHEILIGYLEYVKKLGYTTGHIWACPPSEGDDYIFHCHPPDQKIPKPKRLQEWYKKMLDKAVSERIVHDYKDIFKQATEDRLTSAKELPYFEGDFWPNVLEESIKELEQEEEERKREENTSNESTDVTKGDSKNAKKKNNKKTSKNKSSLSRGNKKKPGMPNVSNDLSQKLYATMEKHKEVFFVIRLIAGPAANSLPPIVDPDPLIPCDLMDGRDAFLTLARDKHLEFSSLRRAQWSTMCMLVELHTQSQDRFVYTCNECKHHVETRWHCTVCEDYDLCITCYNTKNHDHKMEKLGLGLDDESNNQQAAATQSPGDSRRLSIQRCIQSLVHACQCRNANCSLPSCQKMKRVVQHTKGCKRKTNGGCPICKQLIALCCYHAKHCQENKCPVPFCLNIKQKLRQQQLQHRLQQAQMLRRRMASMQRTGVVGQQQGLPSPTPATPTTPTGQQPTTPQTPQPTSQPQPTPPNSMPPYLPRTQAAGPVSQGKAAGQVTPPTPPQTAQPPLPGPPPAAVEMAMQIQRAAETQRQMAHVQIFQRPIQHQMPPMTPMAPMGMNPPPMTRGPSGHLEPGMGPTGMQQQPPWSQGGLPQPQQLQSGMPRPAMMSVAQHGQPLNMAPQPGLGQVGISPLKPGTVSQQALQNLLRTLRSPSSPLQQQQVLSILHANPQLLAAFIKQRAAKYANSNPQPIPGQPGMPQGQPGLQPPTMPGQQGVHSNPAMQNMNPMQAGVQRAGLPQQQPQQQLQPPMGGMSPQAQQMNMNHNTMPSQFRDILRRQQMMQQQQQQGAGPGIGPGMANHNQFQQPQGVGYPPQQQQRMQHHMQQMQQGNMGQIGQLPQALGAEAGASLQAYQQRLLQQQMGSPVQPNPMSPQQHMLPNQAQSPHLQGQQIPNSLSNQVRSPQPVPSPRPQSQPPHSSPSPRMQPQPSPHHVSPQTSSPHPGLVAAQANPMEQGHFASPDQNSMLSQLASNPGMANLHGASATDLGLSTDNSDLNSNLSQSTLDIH

B1: 32-mer PRE (progesterone response element) (dsDNA)
DNA 1: CATCTTTGAGAACAAACTGTTCTTAAAACGAG
DNA 2: CTCGTTTTAAGAACAGTTTGTTCTCAAAGATG
binds: all assays above
